The text below walks through data of patent US20190284266A1 (H LUNDBECK A S, published 2019).

In the assay the target is T1, hyperphosphorylated (pathological) tau from human Alzheimer's disease brain, phosphorylated at serine 396 (human, UniProt P10636 2-758, phosphoserine at 396; hyperphosphorylated at further sites that are not listed).
T1 construct: Brain-derived material (sections, S1, S1p and sarkosyl-insoluble P3 fractions, PBS extracts), a mixture of isoforms and aggregates; also called AD-P3; AD-P3 antigens
T1 sequence (P10636 other isoform, or with tags, fused parts or gaps limits assumed): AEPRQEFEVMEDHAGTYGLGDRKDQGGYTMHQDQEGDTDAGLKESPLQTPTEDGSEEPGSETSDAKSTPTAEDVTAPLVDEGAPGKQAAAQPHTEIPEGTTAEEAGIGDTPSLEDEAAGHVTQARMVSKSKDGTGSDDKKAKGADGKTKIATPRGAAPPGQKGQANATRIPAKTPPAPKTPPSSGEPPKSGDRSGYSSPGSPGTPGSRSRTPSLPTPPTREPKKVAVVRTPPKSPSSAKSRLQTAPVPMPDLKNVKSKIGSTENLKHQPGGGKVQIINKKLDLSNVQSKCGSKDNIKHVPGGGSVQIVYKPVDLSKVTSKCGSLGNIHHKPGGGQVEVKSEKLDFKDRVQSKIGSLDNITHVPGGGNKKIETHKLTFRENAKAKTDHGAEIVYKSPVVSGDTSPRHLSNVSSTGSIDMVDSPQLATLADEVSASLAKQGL
As to the kind of experiment: binding of pathological versus non-pathological tau, brain material (Table 5).

B1: IPN002 (antibody, V domains shown)
VH: EVHLVESGGALVKPGGSLKLSCAASGFSFSKYGMSWVRQTPDKRLEWVATISSSGSRTYYPDSVKGQFTISRDNAKNTLYLQMSSLKSEDTAMYYCSISWDGAMDYWGQGTSVTVSS
VL: DVLMTQTPLSLPVSLGDQASISCKSSQSIVHSNGNTYLEWYLQKPGQSPKLLVYKVSNRFSGVPDRFSGSGSGTDFTLKISRVEAEDLGTYYCFQGSLVPWAFGGGTKLEIK
On to B1, for which the “AD/ctrl (ratio of binding to AD brain tau over control brain tau)” value amounted to 3 fold.

B2: HJ8.5 (antibody, V domains shown)
VH: EVKVEESGGGLVQPGGSMKLSCVVSGFTFSNYWVNWVRQSPEKGLEWVAQIRLKSDNYATHYEESVKGRFTISRDDSKSSVYLQMNNLRAEDSGIYYCTNWEDYWGQGTTLTVSS
VL: DIVLTQSPASLAVSLGQRATISCRASQSVSTSRYSYIHWYQQKPGQPPKLLIKYASNLESGVPARFSGSGSGTDFTLNIHPLEEEDAATYYCHHSWEIPLTFGAGTKLELK
For B2, the “AD/ctrl (ratio of binding to AD brain tau over control brain tau)” value stood at 3 fold.
